Test results taken from US20240041922A1, “METHODS AND COMPOSITIONS” (Monash University, priority 2020, published 2024).
“Also recorded” adds a separate entry of the source.

Key:
PAX7+ satellite cells = assay: Primary mouse myoblast mono- and co-cultures, PAX7+ satellite cell proliferation (EdU); assay type: cell-based; conditions: myoblast monoculture (MB) and MB+3T3 co-culture, 24 h
Procedure: Larvae: Labelling and detection was carried out as previously described (Nguyen, P. D. et al. Muscle stem cells undergo extensive clonal drift during tissue growth via Meox1-mediated induction of G2 cell-cycle arrest. […] Cell culture: Cells were incubated for 1 h in media supplemented with 10 μM EdU. […] Cells were processed using the Click-iTTM EdU Alexa FluroTM 647 imaging Kit (Thermo Fisher) following the manufacturer's protocol. For isolation of primary mouse myoblasts, limb skeletal muscle from E17.5 C57/BL6J mice were minced and digested in 0.125% Trypsin at 37° C. for 20 min. […] Myoblasts were again depleted for fibroblasts prior to co-culturing on gelatin-coated 48 well plates in DMEM+20% FBS+10% L929-conditioned medium. 100,000 myoblasts were plated with either 7,500 MafB/c-Maf deficient (Maf-DKO) macrophages (Aziz, A., Soucie, E., Sarrazin, […]. MafB/c-Maf deficiency enables self-renewal of differentiated functional macrophages. […] For drug treatments, the media were supplemented with appropriate doses and cultured for 24 h.

[1] = tested on: wound-resident muscle stem cells; assay: Larval zebrafish needle stab muscle injury, wound site proliferation (EdU); assay type: in vivo; conditions: needle stab injury; for wound site muscle stem cell proliferation: agent alone
Procedure: 4dpf larvae were anaesthetized in 0.01% tricaine (MS-222) (Sigma-Aldrich) in Ringer's solution. Mechanical injures were targeted either to the dorsal or ventral myotome above the cloaca when the larvae is oriented dorsal to the top, anterior to the left. Needle-stick injury was carried out as previously described (Gurevich, D. B. el al. Asymmetric division of clonal muscle stem cells co-ordinate muscle regeneration in vivo. Science 353 6295 aad9969 (2016)). Briefly, the myotome was subjected to a single 30-gauge needle puncture that generates an extensive injury with many damaged muscle fibres. For laser-induced injury, anaesthetised larvae were mounted in a thin layer of 1% low-melt agarose in Ringer's solution. Injuries were carried out using a UV-nitrogen laser pulsed through a coumarin 440 nm dye cell coupled to a Zeiss Axioplan microscope (MicroPoint Laser System, Andor Technology). On average a laser injury required pulses for 5-10 sec from laser beams focused through a 40× water immersion objective. For time-lapse analysis of the immediate response to injury, muscle fibre ablations were achieved using a SIM scanner (Olympus) at 790 nm and 200 msec dwell time at 100% laser power on an Olympus FVMPE-RS upright multi-photon microscope equipped with a 25×/1.05 water immersion objective. Injury-responding macrophages were tracked using the manual tracking plugin in Fiji.
Cell ablation was carried out as previously described (Pisharath, H. & Parsons, M. J. in Zebrafish 133-143 (Springer, 2009)) with minor modifications. Larvae at the appropriate stage were incubated in 5-10 mM metronidazole (Mtz) (Sigma-Aldrich) in Ringer's solution and daily refreshed until experimental end point. Drug treatments were carried out by incubating 4 dpf needle stick injured larvae in 5 and 10 μM cenicriviroc (CVC) (Med Chem Express) and 5 and 10 μM maraviroc (MVC) (Med Chem Express) in Ringer's solution immediately post injury and refreshed daily.
The effect of drug treatment on laser ablation muscle injury was assayed by treating larvae with 5 μM CVC for 2 h prior to injury and with larvae being maintained in the drug until experimental end point. […] Chemokine supplementation experiments were carried out in plasticware coated with 0.1% bovine serum albumin (BSA) overnight (rinsed in Ringer's solution prior to use) to minimise protein adsorption. Larvae were treated with 57 nM recombinant human visfatin (hrNAMPT(1)) (PeproTech), 57 nM recombinant murine CCL8/MCP-2 (mrCCL8) (PeproTech) and combinations with Mtz and CVC.
Larvae: Labelling and detection was carried out as previously described (Nguyen, P. D. et al. Muscle stem cells undergo extensive clonal drift during tissue growth via Meox1-mediated induction of G2 cell-cycle arrest. Cell Stem Cell 21, 107-119. e106 (2017))^55 with minor alteration. 6 dpf/2 dpi larvae were pulsed with 2.5 nM EdU (Thermo Fisher) for 1h and chased for a further 1.5 h prior to fixation. Cell culture: Cells were incubated for 1 h in media supplemented with 10 μM EdU. Following Edu pulse, C2C12 cells were fixed immediately, while primary mouse myoblast co-cultures were rinsed in PBS, replaced with media and incubated for a further 2 h following which the cells were fixed. Cells were processed using the Click-iT™ EdU Alexa Fluro™ 647 imaging Kit (Thermo Fisher) following the manufacturer's protocol.

C2C12 myoblasts = assay: C2C12 myoblast proliferation (EdU incorporation); assay type: cell-based, mouse; conditions: 6 h in growth media
Procedure: Larvae: Labelling and detection was carried out as previously described (Nguyen, P. D. et al. Muscle stem cells undergo extensive clonal drift during tissue growth via Meox1-mediated induction of G2 cell-cycle arrest. […] Cell culture: Cells were incubated for 1 h in media supplemented with 10 μM EdU. […] Cells were processed using the Click-iTTM EdU Alexa FluroTM 647 imaging Kit (Thermo Fisher) following the manufacturer's protocol. The mouse muscle cell line […]. Serial passaging and differentiation of myogenic cells isolated from dystrophic mouse muscle. Nature 270, 725 (1977) were cultured in growth media (Dulbecco's Modified Eagle Medium (4.5 g/l D-Glucose, No L Glutamine, No Sodium Pyruvate (Gibco))+20% Fetal Bovine Solution-One Shot (Gibco)+1% Glut Max 100x (Gibco)). Cells were maintained at 37° C., 5% CO2. Cells at 70% confluence, passage 8 were extracted from T75 flasks with 0.025% Tryspin EDTA (Gibco), neutralised in growth media, spun at 180×g for 5 min to pellet cells. The cells were then resuspended in 10 ml of fresh growth media. 500 μl of cells were plated on a 8-well on cover glass II (Sarstedt) chamber slide at a density of 1×10^3 cells/ml. Cells were left 4 h at 37° C. to re-attach. For drug treatments, the media were supplemented with appropriate doses and cultured for 6 h.

CCR5 = assay: NAMPTcif competition with NAMPT binding to CCR5
Source text: (§1) As described above NAMPT, is a large homodimeric intracellular enzyme which acts as cytokine when released in the extracellular milieu. […] Moreover, the domain extends out from the core protein structure potentially facilitating receptor binding.

satellite cells = assay: Satellite cell stimulation with NAMPTcif (proliferation); assay type: cell-based; conditions: compared to no stimulation control
Source text: as §1

[2] = target: T1, human recombinant CCR5 (hrCCR5) (Homo sapiens, UniProt P51681); assay: hrNAMPT binding to hrCCR5 (ELISA); conditions: hrNAMPT(1) 0-800 nM on hrCCR5-coated ELISA plates, BSA binding deducted; read-out: dissociation constant (KD)
T1 construct: purchased Abcam
Procedure: hrNAMPT binding to hrCCR5: ELISA plates (Medium binding, Greiner Bio-One) were coated with 1% BSA or 20 nM of GST-fused recombinant human CCR5 (hrCCR5, Abcam) in PBS overnight at 4° C. Wells were blocked for 1 h at room temperature with 1% BSA in PBS containing 0.05% Tween-20 (PBS-T). Wells were washed 3 times with PBS-T and further incubated with hrNAMPT(1) (Peprotech) at increasing concentration (0 nM to 800 nM) for 1 h in PBS-T with 0.1% BSA.

T1 sequence (P51681 whole entry): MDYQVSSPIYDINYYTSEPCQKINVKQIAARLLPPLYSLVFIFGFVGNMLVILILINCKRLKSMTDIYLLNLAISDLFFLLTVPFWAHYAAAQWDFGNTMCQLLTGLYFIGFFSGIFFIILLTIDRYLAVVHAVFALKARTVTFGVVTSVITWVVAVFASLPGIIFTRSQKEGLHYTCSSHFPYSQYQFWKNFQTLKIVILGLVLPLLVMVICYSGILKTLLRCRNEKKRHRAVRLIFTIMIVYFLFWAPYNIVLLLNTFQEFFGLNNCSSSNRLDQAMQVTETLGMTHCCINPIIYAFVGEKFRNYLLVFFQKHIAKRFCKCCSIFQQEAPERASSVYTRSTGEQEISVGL

B1: mrCCL4: recombinant murine CCL4/MIP-1β (PeproTech), cognate CCR5 ligand (protein)
chain: APMGSDPPTSCCFSYTSRQLHRSFVMDYYETSSLCSKPAVVFLTKRGRQICANPSEPWVTEYMSDLELN
PAX7+ satellite cells
  satellite cell proliferation on supplementation: enhanced proliferation; also recorded: mirrored the results of NAMPT addition
[1]
  proliferation external to the injury zone: failed to demonstrate discrimination between injury region and sites external to the damage
  wound site muscle stem cell proliferation: functioned to enhance proliferation
C2C12 myoblasts
  myoblast proliferation, factor added alone: functioned to enhance C2C12 proliferation
C2C12 myoblasts; listed as CCL4/MIP-1β
  myoblast proliferation, factor added alone: could be recapitulated

B2: NAMPTcif: recombinantly produced C-terminal fragment of NAMPT, termed cytokine finger (cif) (protein)
chain: MSYVVTNGLGVNVFKDPVADPNKRSKKGRLSLHRTPAGNFVTLEEGKGDLEEYGHDLLHTVFKNGKVTKSYSFDEVRKNAQLNIEQDVAPHHHHHHH
CCR5
  inhibition of NAMPT binding to CCR5: inhibits the binding of NAMPT to CCR5
Satellite cells
  satellite cell proliferation: promotes proliferation in a dose-dependent manner
Satellite cells; listed as cif
  satellite cell proliferation: stimulates satellite cell proliferation in a dose-dependent manner

B3: hrNAMPT(1): recombinant human visfatin (PeproTech) (protein)
chain: PPNTSKVYSYFECREKKTENSKLRKVKYEETVFYGLQYILNKYLKGKVVTKEKIQEAKDVYKEHFQDDVFNEKGWNYILEKYDGHLPIEIKAVPEGFVIPRGNVLFTVENTDPECYWLTNWIETILVQSWYPITVATNSREQKKILAKYLLETSGNLDGLEYKLHDFGYRGVSSQETAGIGASAHLVNFKGTDTVAGLALIKKYYGTKDPVPGYSVPAAEHSTITAWGKDHEKDAFEHIVTQFSSVPVSVVSDSYDIYNACEKIWGEDLRHLIVSRSTQAPLIIRPDSGNPLDTVLKVLEILGKKFPVTENSKGYKLLPPYLRVIQGDGVDINTLQEIVEGMKQKMWSIENIAFGSGGGLLQKLTRDLLNCSFKCSYVVTNGLGINVFKDPVADPNKRSKKGRLSLHRTPAGNFVTLEEGKGDLEEYGQDLLHTVFKNGKVTKSYSFDEIRKNAQLNIELEAAHH
[2]
  Kd: 172 ± 18 nM
C2C12 myoblasts
  myoblast proliferation, factor added alone: dose dependent increase in myoblast proliferation; also recorded: comparable and significant dose dependent increases in myoblast proliferation

B4: hrNAMPT(2): recombinant human visfatin (Enzo Life Sciences) (protein)
chain: MNPAAEAEFNILLATDSYKVTHYKQYPPNTSKVYSYFECREKKTENSKLRKVKYEETVFYGLQYILNKYLKGKVVTKEKIQEAKDVYKEHFQDDVFNEKGWNYILEKYDGHLPIEIKAVPEGFVIPRGNVLFTVENTDPECYWLTNWIETILVQSWYPITVATNSREQKKILAKYLLETSGNLDGLEYKLHDFGYRGVSSQETAGIGASAHLVNFKGTDTVAGLALIKKYYGTKDPVPGYSVPAAEHSTITAWGKDHEKDAFEHIVTQFSSVPVSVVSDSYDIYNACEKIWGEDLRHLIVSRSTQAPLIIRPDSGNPLDTVLKVLEILGKKFPVTENSKGYKLLPPYLRVIQGDGVDINTLQEIVEGMKQKMWSIENIAFGSGGGLLQKLTRDLLNCSFKCSYVVTNGLGINVFKDPVADPNKRSKKGRLSLHRTPAGNFVTLEEGKGDLEEYGQDLLHTVFKNGKVTKSYSFDEIRKNAQLNIELEAAHH
C2C12 myoblasts
  myoblast proliferation, factor added alone: dose dependent increase in myoblast proliferation; also recorded: comparable and significant dose dependent increases in myoblast proliferation

B5: mrCCL8: recombinant murine CCL8/MCP-2 (PeproTech), canonical CCR5 ligand (protein)
chain: GPDKAPVTCCFHVLKLKIPLRVLKSYERINNIQCPMEAVVFQTKQGMSLCVDPTQKWVSEYMEILDQKSQILQP
[1]
  increase in cell proliferation external to the site of injury vs control: 43.03±4.46%
  proliferation external to the injury zone: also increased proliferation external to the injury zone
  wound site muscle stem cell proliferation: functioned to increase proliferation in the wound site
[1]; supplementation
  increase in muscle stem cell proliferation within the wound site vs control: 28.34±4.48%
C2C12 myoblasts
  myoblast proliferation, factor added alone: functioned to enhance C2C12 proliferation
C2C12 myoblasts; listed as CCL8/MCP-2
  myoblast proliferation, factor added alone: could be recapitulated
